Data published in patent US20240317859A1 (FOUNDATION FOR BIOMEDICAL RESEARCH AND INNOVATION AT KOBE, published 2024).
Positions count from the first letter of the chain named. One block for each binder: values may come before it.

Columns and labels:
[1] = target: T1, substituted human PD-1, domain #7 replaced with the corresponding amino acid sequence of mouse PD-1 (human; mouse, UniProt Q15116 25-288); experiment: flow cytometry on cells expressing substituted human PD-1
T1 construct: Human limits of domain #7 (38-48) are printed; also called PD-1 if domain #7 is replaced
T1 chain: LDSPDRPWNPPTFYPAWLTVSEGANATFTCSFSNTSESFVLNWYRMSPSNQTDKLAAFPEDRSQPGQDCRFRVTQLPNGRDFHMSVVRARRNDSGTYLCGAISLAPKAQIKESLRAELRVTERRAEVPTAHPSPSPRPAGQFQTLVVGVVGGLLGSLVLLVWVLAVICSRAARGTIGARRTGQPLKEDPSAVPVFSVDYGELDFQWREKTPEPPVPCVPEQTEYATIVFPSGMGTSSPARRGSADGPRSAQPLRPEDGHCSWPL
Excerpt: (§1) These sub-groups of antibodies are characterized by a common nature that they bind to domain #6 and domain #7, and are distinguished from known antibodies.
(§2) The gene of human PD-1 (wild-type) or substituted human PD-1 in which regions 1 to 8 as shown in FIG. 2A were replaced with mouse sequences and a gene of fluorescent protein such as GFP were co-expressed in a cell line (such as DO11.10 T cell hybridoma or HEK293T) by means of a vector ligating the genes with IRES sequences. The expression level of PD-1 on this cell line is correlated with the expression level of fluorescent protein such as GFP. Anti-PD-1 antibody was bound to the PD-1/GFP expressing cells, and the bound antibody was detected with a secondary antibody labeled with a different fluorescent dye. Briefly, PD-1-expressing cells were seeded in V-shaped bottom 96-well plates at 1×10⁵ cells/well. To each cell pellet, 50 μl of anti-human PD-1 antibody adjusted to 5 μg/ml was added and mixed. The mixture was incubated at 4° C. for 15 minutes. After washing, BV421-labeled anti-mouse IgG antibody or BV421-labeled anti-human IgG antibody, each adjusted to 5 μg/ml, was added in 50 μl. The mixture was incubated at 4° C. for 15 minutes. After washing, cells were suspended in 200 μl of buffer, and passed through a 70 μm filter. The fluorescence intensity of the filtrate was measured with a flow cytometer. The thus obtained fluorescence intensity can be rephrased as the binding capacity of anti-human PD-1 antibody to human PD-1 (wild-type or substituted). […] Binding characteristics to R143A point mutant or substituted Mouse PD-1 (hu38-48) were also analyzed in the same manner.

[2] = target: T2, substituted human PD-1, domain #1 replaced with the corresponding amino acid sequence of mouse PD-1 (human; mouse, UniProt Q15116 25-288); experiment: as above
T2 construct: also called PD-1 when domain #1 is replaced
T2 chain: T1 chain with Y14S, W17L, T19V, S21T, A24D, A105H, Q109K, K111E, L114P, R115G
Excerpt: as §1, §2

[3] = target: T3, substituted human PD-1, domain #6 replaced with the corresponding amino acid sequence of mouse PD-1 (human; mouse, UniProt Q15116 25-288); experiment: as above
T3 construct: Human limits of domain #6 (109-120) are printed; also called PD-1 if domain #6 is replaced
T3 chain: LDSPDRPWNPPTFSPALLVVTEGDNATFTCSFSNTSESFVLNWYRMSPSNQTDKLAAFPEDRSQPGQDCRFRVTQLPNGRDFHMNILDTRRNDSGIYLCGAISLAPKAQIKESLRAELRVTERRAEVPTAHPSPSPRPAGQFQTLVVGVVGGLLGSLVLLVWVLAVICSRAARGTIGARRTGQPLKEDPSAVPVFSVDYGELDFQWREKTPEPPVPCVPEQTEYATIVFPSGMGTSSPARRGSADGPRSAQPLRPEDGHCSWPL
Excerpt: as §1, §2

[4] = target: T4, human PD-1 (wild-type), expressed on cells (human, UniProt Q15116 25-288); experiment: flow cytometry on PD-1-expressing cells
T4 construct: also called hPD-1; wild-type human PD-1
Excerpt: as §2, with “After washing, cells were suspended in 200 μl of buffer, and passed through a 70 μm filter.” left out

binding result [1]: no binding (tested: 5 µg/ml)
binding result [2]: no binding (tested: 5 µg/ml)
binding result [3]: no binding (tested: 5 µg/ml)
B1: HM624 (antibody, V domains shown)
VH: EVLLQQSGPELVQPGTSVKIFCKASGYTFTDYNIDWVKQSHGKSHEWIGDIDPNNGGTVYNQKFKGKATLTVDKSSTTAYMELRSLTSEDTAVYYCTRWRGAMDYWGRGTSVTVSS
VL: DIQMTQTTSSLSASLGDRVTISCRASQDVSNYLNWYQQKPDGTVKLLIYDTSKLHSGVPSRFSGSGSGTDYSLTIRDPDQEDIATYFCQQGHTLPWTFGGGTKLEIRR

binding result [4]: binds
B2: mouse HM266 (antibody, mouse IgG2a, kappa, V domains shown)
VH: QVQLQQSGPELVKPGASVKMSCKASGYTFTSYYIQWVKQRPGQGLEWIGWIYPGDGSSKYNEKFKGKTTLTADKSSSTAYMLLSSLTSEDSGIYFCASYYGSSFDYWGQGTTLTVSS
VL: DIQMTQTTSSLSASLGDRVTISCRASQDISNYLNWYQQKPDGTVKFLIYYSSRLHSGVPSRFSGSGSGTDYSLTISNLEQEDIATYFCQQGSTLPFTFGGGTKLEIKR
notes: Mouse anti-human PD-1 monoclonal antibody (mouse IgG)
